Reference: patent US20140295520A1

Experiments:
[1] = molecular target: EutMNLK (EutM, EutN, EutL and EutK co-expressed without EutS) (Salmonella enterica LT2); assay: cell-based or functional assay
[2] = molecular target: EutS (recombinant EutS shell/compartment) (Salmonella enterica LT2) (UniProt Q9ZFV7); assay: cell-based or functional assay
[3] = molecular target: EutS-G39V mutant (Salmonella enterica LT2); assay: cell-based or functional assay
[4] = molecular target: EutSMNLK (recombinant shell of EutS, EutM, EutN, EutL and EutK) (Salmonella enterica LT2) (UniProt Q9ZFV7); assay: cell-based or functional assay
[5] = tested on: EutS (recombinant EutS shell/compartment)

Question: Which % cells with green flourescent foci (E. coli C2566) [1] does the source give for “Enhanced Green Fluorescent Protein (EGFP)” here?
Answer: 0.1%

Question: And the % cells with green flourescent foci (E. coli JM109) [1]?
Answer: 0.8%

Question: And the % cells with green flourescent foci (E. coli C2566) [2]?
Answer: 0.5%

Question: And the % cells with green flourescent foci (E. coli JM109) [2]?
Answer: 0.6%

Question: What about the % cells with green flourescent foci (E. coli C2566) [3] of the same substance?
Answer: 0.3%

Question: And the % cells with green flourescent foci (E. coli JM109) [3]?
Answer: 2.9%

Question: What about the % cells with green flourescent foci (E. coli C2566) [4] of the same substance?
Answer: 0.2%

Question: And the % cells with green flourescent foci (E. coli JM109) [4]?
Answer: 1.8%

Question: “EutC^1-19-BTL-2 fused to EGFP (modular cassette)” was tested. Which “fluorescent localization in E. coli” value [5] did it give?
Answer: Upon co-expression of EutS, the majority of the tagged lipase localizes to a compartment formed somewhat off-center in E. coli

Question: What does the source list for EutC^1-19-EGFP?
Answer: % cells with green flourescent foci (E. coli C2566) [2]: 87%; % cells with green flourescent foci (E. coli JM109) [2]: 84%; % cells with green flourescent foci (E. coli C2566) [4]: 84%; % cells with green flourescent foci (E. coli JM109) [4]: 79%
